Measurements taken from the supplement of paper PMC9170038.

System: MS2 coat protein
Test: apparent KD of MS2 coat protein; designed switch direction (-1 OFF switch, 1 ON switch): 1; higher = weaker reporter binding
Method in brief: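 Three titration conditions were used: no input, 200 uM small-molecule ligand, and an oligonucleotide input. In each, SNAP-549-labelled MS2 coat protein was raised from 0.7 or 1.5 nM, doubling, to 3 µM over designed RNA switches transcribed on Illumina chips by stalled E. coli RNA polymerase. Curve fits of normalised cluster fluorescence gave values whose per-design median over clusters is the apparent KD.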

[1] = Eterna round: R95, input ligand: FMN 200 uM
[2] = Eterna round: R95, input ligand: microRNA oligo, concentration not stated
[3] = Eterna round: R95, input ligand: none
[4] = input ligand: microRNA oligo, concentration not stated

Row | Sequence | apparent KD of MS2 coat protein [1] [nM] | apparent KD of MS2 coat protein [2] [nM] | apparent KD of MS2 coat protein [3] [nM] | apparent KD of MS2 coat protein (input ligand: FMN 200 uM) [nM] | apparent KD of MS2 coat protein [4] [nM] | apparent KD of MS2 coat protein (input ligand: none) [nM]
1 | GACAAUCUAUCUGAGGAUAUCAUGAAAAAAACAUGAGGAUCACCCAUGUGCAGGAAAACUGCAUAUGAGAAGGCAGAUAGAUUGU [salish99_SS2_r3_010] (puzzle: Same State 2) | 45.3 | 689 | 627 | – | – | –
2 | UUCUAACAUGAGGAUCACCCAUGUCAUAUGACAUGAGGAUAUGUACAGACUUCGGUCUGUACAGAAGGCAUGUUAG [SS1 - 1011 Omei Mod 7] (puzzle: Same State 1) | 31.6 | 10.7 | 20.5 | – | – | –
3 | GCUCGAUGAAAGUCCUACAUGAGGAUCACCCAUGUACGUGGGCAGGAUAUCUACAUGCAGAAUGUAGAGAAGGGCCCGUCGAGC [SameState NG3 #58] (Eterna round: R96, puzzle: Same State NG 3) | – | – | – | 15.1 | 16.5 | 17.4
4 | GAGUGGUGAAAAGGAUAUGCAUUGUUAUUCACUGUAGAAGGUUUUAACAUGAGGAUCACCCAUGUAGGACUAUUCCUGUGUUUU [Parity 60 - Jieux - Same State NG 1] (Eterna round: R96, puzzle: Same State NG 1) | – | – | – | 17.6 | 14.8 | 23.2
5 | GAUAAACAUGAGGAUCACCCAUGUAAUAAUAUGGGAGGAUAUCAGAAUGUAUGUAUGUAAUGAGAAGGCCUAAUAU [Mat - Same State 1 - Mod of Eli - D71] (puzzle: Same State 1) | 61.8 | 545 | 491 | – | – | –
6 | UACAAUCUAUCUGAGGAUAUCAUGAUUAUAACAUGAGGAUCACCCAUGUGCAGGAAAACUGCAUAUGAGAAGGCAGAUAGAUUGU [salish99_ss2_r3_069] (Eterna round: R96, puzzle: Same State 2) | – | – | – | 228 | 116 | 232
7 | GCCAACUCAUGAGGAUAUGGCACCUUAAUGGUGCCAGAAGGCAUGUCUAUUGACAUGAGGAUCACCCAUGUAUUUUUGUUGGCA [Fiskers NG1ss - 26] (Eterna round: R96, puzzle: Same State NG 1) | – | – | – | 120 | 750 | 1210
8 | CCAUAGUACAAUUUAGAUCUACAUGAGGAUCACCCAUGUACUGAGGAUAUCAGCUCGAAUAGAGCUGAGAAGGCAGAAGUACUU [SSNG3/6-A1] (Eterna round: R96, puzzle: Same State NG 3) | – | – | – | 22.6 | 101 | 83.6
9 | UAUCCAUAGAUAGGAUAUUAGUGAACAUGAGGAUCACCCAUGUUUGGCUUGGUUUUAAGCUAAUCUGAGAAGGAUCUUGAUGAA [SameState NG2 #7] (Eterna round: R96, puzzle: Same State NG 2) | – | – | – | 150 | 98.5 | 164
10 | CACCAGAGGAGAGGAUAUGGUCGAACCCACAGUCCAGAAGGCUCACAGGAACCUAGAGACAUGAGGAUCACCCAUGUGGCGACC [Eternabot solution 7] (Eterna round: R96, puzzle: Same State NG 1) | – | – | – | 144 | 105 | 165
11 | UGGUACAUGGGAGGAUAUCCUCAGGAGACAUGAGGAUCACCCAUGUAUUAUAAGCCGAAAGGCAUGGAGAAGGCCCAUGUACCU [JL SSNG1 3.82] (Eterna round: R96, puzzle: Same State NG 2) | – | – | – | 14.1 | 112 | 123
12 | GUUACAUGAGGAUCACCCAUGUAUGUGUGGGAGUAAGUGUCUUAGGAUAUCUAUGAUUUGAUUUAAGAGAAGGAAGAUUGUUGU [JMF's solution 78] (Eterna round: R96, puzzle: Same State NG 3) | – | – | – | 122 | 80.9 | 110
13 | CACAUGAGGAUCACCCAUGUGAGGCGGCAAUAAAACCGCGCACAGGAUAUAGCGCUAUAAAUGCACUAGAAGGGUGAUUAGAAC [Zabeceis] (Eterna round: R96, puzzle: Same State NG 3) | – | – | – | 1680 | 69.6 | 36.4
14 | CGUCCAGCCUGAGCUGGACAAAAGCAUGUACAUGAGGAUCACCCAUGUUCAUGUACAAGCUUUUUGCUCGUCUUAUG [salish99_208a_r3_054] (Eterna round: R96, puzzle: Sensor for hsa-mir-208a) | – | – | – | 485 | 16.4 | 607
15 | GCGAGCGUACUUGCUACAUGAGGAUCACCCAUGUCUAUUGGACAGGAUAUGGUACCGUUUCGGUACCAGAAGGGUUCAUCAUGU [JL SSNG3 3.72] (Eterna round: R96, puzzle: Same State NG 3) | – | – | – | 400 | 46.2 | 34.6
16 | AGCUAAAACGAAGGAUAUACAGACAUGAGGAUCACCCAUGUAUACAUGAUUUAUUGUGAUCACAUGUAGAAGGUCGUACUAACA [SameState NG2 #20] (Eterna round: R96, puzzle: Same State NG 2) | – | – | – | 190 | 649 | 681
17 | UAGAACAAGCUUUUUGCCCGUCUUAUAUAACAUGAGGAUCACCCAUGUAAGGUGAAAGUUAGAGAGUGGAGGAAGAA [JR_SHM208A_Sub053] (puzzle: Sensor for hsa-mir-208a) | 95.3 | 272 | 123 | – | – | –
18 | GCCAUCGCAUGAGGAUAUGGCACCGAAACGGUGCCAGAAGGCAUGUCGUAAGACAUGAGGAUCACCCAUGUAGUUAAGAUGGCA [Mat - Same State NG 1 - JL mod - D91] (Eterna round: R96, puzzle: Same State NG 1) | – | – | – | 215 | 229 | 907
19 | AAAAAACAUGAGGAUCACCCAUGUCAAAAGACUCGAGGAUAUGGGCAAAUAAAAUAAGAACCAGAAGGCGAGAAAA [salish99_ss1_r3_101] (puzzle: Same State 1) | 20 | 36.3 | 31.7 | – | – | –
20 | GGAAGGAAGUCAGGAUAUGAAUGGAAAGUACAUGAGGAUCACCCAUGUUAUGGAGGAAGGAAACGUUAGAAGGGAUAAGGAAGG [AK SSNG2-V2-1.1] (Eterna round: R96, puzzle: Same State NG 2) | – | – | – | 67.8 | 45.2 | 63.7
21 | GGUAGGUUACUACCAAACAUGAGGAUCACCCAUGUAAGUGGGAAGGAUAUGGUACCUAUUUGGUACCAGAAGGUCUAAUUAAUU [Fiskers NG3ss - 2] (Eterna round: R96, puzzle: Same State NG 3) | – | – | – | 444 | 59.9 | 1230
22 | UUGAAUAAUUAAGGAUAUUGAGUACAUAUGUUUAACAUGAGGAUCACCCAUGUGGGUUGCGGUAUCGAGAAGGUAAAUUACUAG [Mat - same State NG 2 - JL mod - D67] (Eterna round: R96, puzzle: Same State NG 2) | – | – | – | 145 | 83.8 | 125
